From patent US20240117018A1

How the values were obtained:
Assay in all cases: cell-based or functional assay
[1] = target: HIV-1 Env of pseudovirus X2088_c9 (HIV-1)
[2] = target: HIV-1 Env of pseudovirus ZM247v1(Rev-) (HIV-1)
[3] = target: HIV-1 Env of pseudovirus 3817.v2.c59 (HIV-1)
[4] = target: HIV-1 Env of pseudovirus BJOX010000.06.2 (HIV-1)
[5] = target: HIV-1 Env of pseudovirus HIV-0013095-2.11 (HIV-1)
[6] = target: HIV-1 Env of pseudovirus CNE21 (HIV-1)
[7] = target: HIV-1 Env of pseudovirus CAAN5342.A2 (HIV-1)
[8] = target: HIV-1 Env of pseudovirus ZM135M.PL10a (HIV-1)
[9] = target: HIV-1 Env of pseudovirus CNE58 (HIV-1)
[10] = target: HIV-1 Env of pseudovirus AC10.0.29 (HIV-1)
[11] = target: HIV-1 Env of pseudovirus 7030102001E5(Rev-) (HIV-1)
[12] = target: HIV-1 Env of pseudovirus Q769.d22 (HIV-1)
[13] = target: HIV-1 Env of pseudovirus 249M B10 (HIV-1)
[14] = target: HIV-1 Env of pseudovirus MS208.A1 (HIV-1)
[15] = target: HIV-1 Env of pseudovirus T251-18 (HIV-1)
[16] = target: HIV-1 Env of pseudovirus Q259.d2.17 (HIV-1)
[17] = target: HIV-1 Env of pseudovirus CNE19 (HIV-1)
[18] = target: HIV-1 Env of pseudovirus C1080.c03 (HIV-1)
[19] = target: HIV-1 Env of pseudovirus 89-F1_2_25 (HIV-1)
[20] = target: HIV-1 Env of pseudovirus 1394C9G1(Rev-) (HIV-1)
[21] = target: HIV-1 Env of pseudovirus TRO.11 (HIV-1)
[22] = target: HIV-1 Env of pseudovirus SC422661.8 (HIV-1)
[23] = target: HIV-1 Env of pseudovirus Q461.e2 (HIV-1)
[24] = target: HIV-1 Env of pseudovirus 62357_14_D3_4589 (HIV-1)
[25] = target: HIV-1 Env of pseudovirus BF1266.431a (HIV-1)
[26] = target: HIV-1 Env of pseudovirus WEAU_d15_410_787 (HIV-1)
[27] = target: HIV-1 Env of pseudovirus ZM109F.PB4 (HIV-1)
[28] = target: HIV-1 Env of pseudovirus Ce2060_G9 (HIV-1)
[29] = target: HIV-1 Env of pseudovirus CNE17 (HIV-1)
[30] = target: HIV-1 Env of pseudovirus Q23.17 (HIV-1)
[31] = target: HIV-1 Env of pseudovirus HIV-16055-2.3 (HIV-1)
[32] = target: HIV-1 Env of pseudovirus X1193_c1 (HIV-1)
[33] = target: HIV-1 Env of pseudovirus Ce1176_A3 (HIV-1)
[34] = target: HIV-1 Env of pseudovirus 6811.v7.c18 (HIV-1)
[35] = target: HIV-1 Env of pseudovirus X1632_S2_B10 (HIV-1)
[36] = target: HIV-1 Env of pseudovirus ZM53M.PB12 (HIV-1)
[37] = target: HIV-1 Env of pseudovirus Ce1086_B2 (HIV-1)

Substance: N49P7.1 (antibody)
- IC50 [1]: 0.199 µg/mL
- IC80 [1]: 0.726 µg/mL
- MPI [1]: 100
- IC50 [2]: 0.038 µg/mL
- IC80 [2]: 0.176 µg/mL
- MPI [2]: 100
- IC50 (neutralisation, TZM.bl cells) [3]: 1.48 µg/mL
- IC80 (neutralisation, TZM.bl cells) [3]: 8.36 µg/mL
- MPI [3]: 97
- IC50 [4]: 0.132 µg/mL
- IC80 [4]: 0.623 µg/mL
- MPI [4]: 100
- IC50 [5]: 0.105 µg/mL
- IC80 [5]: 0.374 µg/mL
- MPI [5]: 100
- IC50 [6]: 1.58 µg/mL
- IC80 [6]: 12.2 µg/mL
- MPI [6]: 96
- IC50 [7]: 0.55 µg/mL
- IC80 [7]: 1.59 µg/mL
- MPI [7]: 100
- IC50 [8]: 0.314 µg/mL
- IC80 [8]: 1.11 µg/mL
- MPI [8]: 99
- IC50 [9]: 0.049 µg/mL
- IC80 [9]: 0.107 µg/mL
- MPI [9]: 100
- IC50 [10]: 5.31 µg/mL
- IC80 [10]: 46.8 µg/mL
- MPI [10]: 85
- IC50 [11]: 0.11 µg/mL
- IC80 [11]: 0.498 µg/mL
- MPI [11]: 100
- IC50 [12]: 0.044 µg/mL
- IC80 [12]: 0.163 µg/mL
- MPI [12]: 100
- IC50 [13]: 0.053 µg/mL
- IC80 [13]: 0.225 µg/mL
- MPI [13]: 100
- IC50 [14]: 0.12 µg/mL
- IC80 [14]: 0.431 µg/mL
- MPI [14]: 100
- IC50 [15]: 0.229 µg/mL
- IC80 [15]: 0.794 µg/mL
- MPI [15]: 100
- IC50 [16]: 0.505 µg/mL
- IC80 [16]: 4.23 µg/mL
- MPI [16]: 97
- IC50 [17]: 0.027 µg/mL
- IC80 [17]: 0.128 µg/mL
- MPI [17]: 100
- IC50 [18]: 0.144 µg/mL
- IC80 [18]: 1.05 µg/mL
- MPI [18]: 100
- IC50 (neutralisation, TZM.bl cells) [19]: 41.6 µg/mL
- IC80 (neutralisation, TZM.bl cells) [19]: > 50 µg/mL
- MPI [19]: 58
- IC50 [20]: 4.37 µg/mL
- IC80 [20]: 30.9 µg/mL
- MPI [20]: 88
- IC50 [21]: 0.055 µg/mL
- IC80 [21]: 0.191 µg/mL
- MPI [21]: 100
- IC50 [22]: 0.125 µg/mL
- IC80 [22]: 0.417 µg/mL
- MPI [22]: 100
- IC50 [23]: 0.329 µg/mL
- IC80 [23]: 1.14 µg/mL
- MPI [23]: 100
- IC50 [24]: 0.028 µg/mL
- IC80 [24]: 0.15 µg/mL
- MPI [24]: 100
- IC50 [25]: 0.033 µg/mL
- IC80 [25]: 0.11 µg/mL
- MPI [25]: 100
- IC50 [26]: 0.058 µg/mL
- IC80 [26]: 0.142 µg/mL
- MPI [26]: 100
- IC50 [27]: 0.055 µg/mL
- IC80 [27]: 0.199 µg/mL
- MPI [27]: 100
- IC50 [28]: 0.473 µg/mL
- IC80 [28]: 2.41 µg/mL
- MPI [28]: 100
- IC50 [29]: 0.254 µg/mL
- IC80 [29]: 0.86 µg/mL
- MPI [29]: 100
- IC50 [30]: 0.077 µg/mL
- IC80 [30]: 0.208 µg/mL
- MPI [30]: 100
- IC50 [31]: 0.088 µg/mL
- IC80 [31]: 0.318 µg/mL
- MPI [31]: 100
- IC50 [32]: 0.035 µg/mL
- IC80 [32]: 0.144 µg/mL
- MPI [32]: 100
- IC50 [33]: 0.279 µg/mL
- IC80 [33]: 1.01 µg/mL
- MPI [33]: 100
- IC50 (neutralisation, TZM.bl cells) [34]: 0.321 µg/mL
- IC80 (neutralisation, TZM.bl cells) [34]: 1.46 µg/mL
- MPI [34]: 100
- IC50 (neutralisation, TZM.bl cells) [35]: 17.9 µg/mL
- IC80 (neutralisation, TZM.bl cells) [35]: > 50 µg/mL
- MPI [35]: 65
- IC50 [36]: 0.287 µg/mL
- IC80 [36]: 1 µg/mL
- MPI [36]: 100
- IC50 [37]: 0.121 µg/mL
- IC80 [37]: 0.742 µg/mL
- MPI [37]: 99
